Test results as given in the DeepSol protein solubility set.

Experiment: soluble on expression in E. coli; label from the status in PepcDB or PDB records

Sequence	soluble on expression in E. coli
LFTPHWIVRYLVENSLGRLWMLNRPESSLVDRMEYYIKPEKQETDFLKINSPEEIKICDPACGSGHMLVYAFDLLYAIYEEEGYTPSEIPEMILTHNLFGIEIDKRAGELAGFALAMKARGKDRRFFNKQVHPNICMLENVAFEQGELNDYIETVGRELFTNAHRATLLQFAEADNFGSLIRPVAKDISDLLHLLESKNLSGNLSLLSTHQKVLKALKQADYLSPKYHVVVANPPYMGGKGMNNRLKTFAQDNYPDSKSDTFAMFIERNLDLAVKKGMVAMITMQSWMFLSSFEKLRENILSNDTILSMAHFGARAFDSIGGEVVSTTAFVLENAQHPDYKGSYLRLVDGN	not soluble
MKTVTEFQNKNILVLGIAKSGYAAATLLQKLGANVIVNDGKPLAENVLAAELQAKGMDVVCGGHPLELLERNISLVVKNPGIPYSNPILVAAKEKQIPIVTEVELAYRISEAPFVGITGSNGKTTTTMLTFEMLKEGQKHPVIAGNIGTVACEVAQDAKENEVVVTELSSFQLMGVELFQPKIAAFLNLFEAHLDYHGTKKEYGLAKANIFKNQTENDYSVINADDADVMALSAYSKGQKVLFSTTKEIEDGACIKDNALYFKAEKVVEVDDIVLPGQHNLENILAAMSIAKLLGVSNEAITAVLKRFTGVKHRLEYVTTINNRKFYNDSKATNMLATEKALSAFTQPTVLLAGGLDRGNEFDDLIPYFKNVKAIVTFGQTAPKLVRAAEKAGLDTIESVDTLDEAVVKAYAHSTDGDVILLSPACASWDQFKTFEERGDIFIQAVHKLI	not soluble
MHRPITAGHTTSRLILDQLKQISRTPSESSVQSALSQQASMSSPVLERSKSAPALLTAAQRTMLAQVGACNSHLTSDENMAINELRLHKPRLPKDTWFFTDPNKDPDDVVTYTLGKQLQAEGFVHITDVVATLGDAEVRSQRAEMAKGVFNKLGLHDVHVSRGRDYAMNSLQSKEHAKFLLEGHALRAGPGEIHRDSLQDMSRRLARAPHGVGIVVIAGMSDINALITTCPDMVRERVDDITIMGGVEPLKDADGFVQPDARAYNNATDMDAARSLYRKAQELGIPLRIVTKEAAYKTAVSPSFYEGIAGSGHPVGHYLRDVQKSALKGLWEGIQAGLLPGLDDSWFFRTFMPNAQIEAAQLDKNKESSFEDIWPKVTKLNLYDPLTLLASVPGAAKLLFKPKAIHTEGFGVVEQVGPDDVTHPEKAKLLMSALAKSALVQSTVAPD	not soluble
ITASGENRNAINDLLGAMCYDEETARTYQGYVAELDNPHTPETEEYGISSFVFKGDRPFDRQRLIAALRSTRGIVRSKGHCWISDRIDMVQVWHQAGPDLRIAPAGYWQSAGITPSNEIVVIGVNFDHAQAQQLLNDAMLSDSEVQQLLSTADAAKS	not soluble
MGSDKIHHHHHHMIPTFVVWSQSMFNDAIVYDRYGPPAAVLTLKRLPLAPLAGGRVRVRMRFAPVNPSDLIPVTGAYRHRTRLPAVAGYEGLGEVVAAPYGSRLAAGQRVLPLRGGGTWQRFIDLDETWLVPVPPAVDDLLAARGYINPLTAMLMLKRWPVAGKHLVLTAASSSCASLLGQWALAMGARSVSGIIRSPQHRARLEQAGIYPILDTDRALMEKVSQHSDLVFDAVGGELANTLLSVLPGSSTLISYGLLSGRPLTQTRGSATVRKFHLREALPTLSVAAWRAAFDEIWQRLPTTSQPPAQRIALNDWRAAIAAAGQPGRGGKILLDFTAG	not soluble
MAHHHHHHMKNGKPMGGRETQKQKQKQKQVTLLTWINRANQPRQLTRKTKKAHEKQEERRIWLGAAKRLPQKMPQSMRCNYDIRTHINTHIHKHSHSHSHQLQTYTRTHHLSQKEMKRNEPQDIIRFHSNTQEPAGSTSSHVVTRLVITLLLLCTTQICPTSTEAVERGKQGALLFR	soluble
MSLGREKGLSTFLFLLLFSISLHAQRQDILLNNNWNFRFSHQVQGDTRRVDLPHTWNAQDALAGKIDYKRGIGNYEKALYIRPEWKGKRLFLRFDGVNSIADVFINRKHIGEHRGGYGAFIFEITDLVKYGEKNSVLVRANNGEQLDIMPLVGDFNFYGGIYRDVHLLITDETCISPLDYASPGVYLVQEVVSPQEAKVCAKVNLSNRAADGTAELQVLVTDGTKVICKESRNVSLKQGADILEQLPLLIQKPRLWNGCEDPFMYQVSISLHKDGKQIDSVTQPLGLRYYHTDPDKGFFLNGKHLPLHGVCRHQDRAEVGNALRPQHHEEDVALMREMGVNAIRLAHYPQATYMYDLMDKHGIVTWAEIPFVGPGGYADKGFVDQASFRENGKQQLIELIRQHYNHPSICFWGLFNELKEVGDNPVEYVKELNALAKQEDPTRPTTSASNQDGNLNFITENIAWNRYDGWYGSTPKTLATFLDRTHKKHPELRIGISEYGAGASIYHQQDSLKQPSASGWWHPENWQTYYHMENWKIIAERPFVWGTFVWNMFDFGAAHRTEGDRPGINDKGLVTFDRKVRKDAFYFYKANWNKQEPMIYLAEKRCRLRYQPEQTFMAFTTAPEAELFVNGVSCGKQKADTYSTVVWKNVKLTSGENIIRVTTPGKKPLTDEVTVEYKEDREGHHHHHH	not soluble
GSHMRIPATIKKKMALPPATPVFTGEKKVEETKITAAIYDEKSVEFKELEVGELESVVRSALALNKKLWIDVVGVHDESLIAKICEFLGIHPLAAEDILNTAQRVKIEDYDDHLFLVLKILLYNETLEIDQLSLVLKKNLVATFEEREYWILDSIRSRLKSGGRMRKLAGDYLAYTILDAVVDSYFEALLKISDEIEVLEDEVVSGDSTLIGKIHSLKREILAFRNAVWPLRDVLSFFTRVEHELIGEEVKVYYRDVYDHAVRLME	soluble
ARGVKGHVRVLANTTAMTEFMPAVLARYLAAHPDVNVELRERLSYLVVRAVADGSADIGVVAGCAPDQKLQFIPYRKDRLVVVTPAGHRLAAEESVAFADTLADDYVGLSEWSAIHPFLVQAAASLGRTFKFRVEVGNFEAVCRMIESG	not soluble
MSLTASYETIKARLDGTVLSATFNAPPMNLIGPEVVRDLVALLEELAHPTAPRVVIFDSADADFFFPHVDMTKVPEYTAEAAKAGGPGDASLGMLFRKLSQLPAVTIAKLRGRARGAGSEFLLACDMRFASRENAILGQPEVGIGAPPGAGAIQHLTRLLGRGRALEAVLTSSDFDADLAERYGWVNRAVPDAELDEFVAGIAARMSGFPRDALIAAKSAINAISLPAPAEVRADAALFQQLVRGEKVQQRTAELFKQGFQTRGATELDLGDALGHLKAVDEGHHHHHH	soluble
GPGSMQRGFCRVGTVTVSQAQKRAAELINSSDGFCSNVMRTVQFTPTGVKACDGESMGFSWRANQRALNGFRSTHGGALAILADTFTQIHLGAARPAAEFRSVSFEINYLEAIPENAECTCITRIVGDGESDIHHVEYSFQDERRRKVFSRGTHVLSCTK	soluble
MHEFSIVQSLLTLIEDYARENNAKSVTKVVVSIGVLSGVEPHLLEMAFNTFKEGTVAEKAELIMEIEKLKIKCMDCGKESEKEELNMLCPGCGSLNTQIISGQDMFLKSLELEVD	soluble
MGSDKIHHHHHHLNLIWTNLRVPVEEDERQLPLMIARKLKVSQQSISNLRILRRSVDARKKPQLLFSYTLGFSLDIPYKEVNRVLHRVADLKPEPQIMPRPFMKPEKSLKHRPIVVGAGPAGYFAALTLAKGGYAPLVLEQGDDVETRSLKVENFWRTGQLDTESNVQFGEGGAGTFSDGKLTTRIADPRITEVLETFVEQGAPSEILFLAKAHIGTDILKIVTQRLREKIQSLGGEVRFRAKLTGLRHQNGKLVGVEVNHQEVVPAEAVILAIGHSARETYRLLLAQGVHLEQKAFAIGLRIEHPQKLINTSQYGVEFHPKLGPADYQLTYQDTTTGRGAYAFCMCPGGKVVAAASDLERLVTNGMSEYRRDTGIANSALVVTVGKGDFQREHPLAGVEFQEYWEHQAFLAGDRDYKAPAQSVRDFLAKRVTGDFPLPASYTPGIQPVELHRVLPQAVGDVLDRALLSFERKIQGFAGEMGTLTGIETRTSAPVRITRDKMGEALHIQGLFPAGEGAGYAGGIMSAAVDGIRSAEGIMAQYNPAD	not soluble
MAKVLVLGGGIGGTEAAIALRKEGFEVSLVSDKPYLYIYPISIWIPTGEAKFEDVIIPLDKFARRWGVNLIIDRVEKIDAQNKKVHLKSGKVLEDFDYLVVALGQTKRKEKGLENTLSICGSPEEALKIRDRLVELIAKGEGKIAFGFGGNPKDKTAVRGRPVFEVLFNVDYHLSRLGIRDRFELTFFAPMPKPGERLGEKALKMLDQMFQKYGIKKITGKKIKEFKENGVLFEDDTFLESDLIIYTPAGWGNPVFADSGFPLNEAGFIKIEETCQVVGYEWAYAIGDSAAIEGPPWTAKQGHLAEVMGHITAHNIAVKEGKKSGELKSYKEHINILCLMDMGWRGGGFAYRSDKRAMLIPIPVLGHIMKKAWGVYYKLYKLGKIPKII	not soluble
LLELLLLTSELYPDPVLPALSLLPHTVRTAPAEASSLLEAGNADAVLVDARNDLSSGRGLCRLLSSTGRSIPVLAVVSEGGLVAVSADWGLDEILLLSTGPAEIDARLRLVVGRRGDLADQESLGKVSLGELVIDEGTYTARLRGRPLDLTYKEFELLKYLAQHAGRVFTRAQLLHEVWGYDFFGGTRTVDVHVRRLRAKLGPEHEALIGTVRNVGYKAVRPARGRPPAADPDDEDADPGRDGMQEPLVDPLRSQ	not soluble
GPGSMQPRKTVKKVDVEPSPEEDAELLPHLKVSAKWSERAANNGKSLSQVQFLLGALGKQLEDCNKELASVYANADLLSSLRITEYRQRNTPGGLLTPTRKARTKRNASTRPVARQQLDENSTEALIAAMDEKKRARVTAALIAFFKRDMQEQNSPAYQNASTPVPQGANHSSTRTSQTLGRIPSANSHTMLCESNKGNQPSCSNGNELPTLLSETQQQQLRRHRDIPPELWDEMAKLRLRRLSLEEKIGSLLSNINAQTERFGLLMEVQGVNSYSTESVNRAIEMIRQKRA	soluble
GVLPVEKCNLEDSACMTSAFQQALPTFVAGLPDHGVEVMDVLDLDDFAFDLSGLQFTLKEGKLKGLKGAVIDNVKWDLKKKNIEVDFHLDATVKGHYTAGGRILILPITGDGQMKLKLKNIHIHLVVSYEMEKDAEGVDHVIFKKYTVTFDVKDNAQFGLTNLFNGNKELSDTMLTFLNQNWKQVSEEFGKPVMEAAAKKIFKNIKHFLAKVPIAEIANV	soluble
AGIVNQVTAKNITADLQGGYPWSESNPLLLSDVSVDVLGGQIIMKQLRMPQHDPALLRVQNISSSELISAINPKQFAMSGPVSGALPLWLNNEKWIIKDGWLTNPGPMTLRIDKDTADAVVKDNVTAGSAINWLRYMEITHSWTKINVDNLGVLTMQAAITGKSRVDGKTAIVNLNYTHEENVFTLWRSLRFGDNLQAWLEQNTALPQPP	not soluble
MSLSNQEPIANYKFNYKTTANKVMKNINLSGKTIIITGGYSGIGLEMTKQLSRAGAKIIIPARRMEVAKKNLSKIKNIDILPLDLTNPESIHQFAESFLQNNSKLDILINSAGLMYLPLKRDSRGIEYHFATNHLGHYQLTLELLPALKNAKISRVINLSSRAQQMTPLLEDWNFEKIENYNPQIGYQQSKTANVLFSIKLDELGKKYGIRSFAVHPGMIPMTNIGRQNSPITPWLRYLADYFKLIHIPVFFNALKSGFDRSKYRYLKTIAQGAATPLWASTSPDLEGKGGLYCEDLNIARLMTSEEANNFSGGLRPHAIDHNDADRLWQISKNITGLDEGHHHHHH	not soluble
MTESEVRKLLRRMKELDSQTAFRAFYDMTYDRLYRIAYYYVKREEWSQEIVLDVFLKLWEQRSSLPEVKSIEDYCFILVKNASLNYLEKENRRTTVSTETLPEPEAQSDSPEESMISEELFAIYVKALDRLPERCREVFIRIREEKQSYAQVAEELGISTKTVDAQLQKATIRLKEAISMVNNDR	not soluble
